This is an account of results in article PMC9943675, “Depletion of the RNA-binding protein PURA triggers changes in posttranscriptional gene regulation and loss of P-bodies”.

The target of this data set is T1, PURA (Pur-alpha) (Homo sapiens, UniProt Q00577 1-322).
T1 sequence: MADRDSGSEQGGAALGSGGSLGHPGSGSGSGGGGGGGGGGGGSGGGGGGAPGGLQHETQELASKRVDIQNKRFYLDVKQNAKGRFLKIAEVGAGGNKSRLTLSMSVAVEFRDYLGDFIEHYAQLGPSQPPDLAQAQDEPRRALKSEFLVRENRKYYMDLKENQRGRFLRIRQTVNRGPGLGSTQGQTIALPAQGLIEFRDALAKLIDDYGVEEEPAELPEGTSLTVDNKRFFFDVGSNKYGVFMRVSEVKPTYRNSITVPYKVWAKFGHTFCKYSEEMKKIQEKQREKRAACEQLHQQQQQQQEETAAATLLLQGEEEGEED
Description: EMSA; 100 ug/ml yeast tRNA; 250 mM NaCl, 20 mM HEPES pH 8.0, 3 mM MgCl2, 4% glycerol, 2 mM DTT, 100 ug/ml yeast tRNA, 2.5 nM RNA, 20 min RT; 6% TBE gel. The following applies: protein: recombinant; tags: GST-PURA (pOPIN-J); GST removed with 3C protease; chain copies: 2; label: 5' 32P.

B1: CLTA (ssRNA)
RNA: GUUGUUUGUGAUUGCAUGUUUCCUUCCUUCAACUGUGUUCUCCCUGGCAUU
Turning to B1, the binding result was “binds”.

B2: CLTC (ssRNA)
RNA: GUCUUGUGUGUGUUUACUAACCCUUCCCUGAGGUUUGUGUAUGUUGGAUAUUGUGGUGUUUUAG
On to B2, for which the binding result was “binds”.
